These results are taken from the DeepSol protein solubility set.

This series is described as follows: soluble on expression in E. coli; label from the status in PepcDB or PDB records.
For “MGSDKIHHHHHHMRLLFSTMFLYEYSTDMIAKAVNLAGYDGVEFWPETPYFWVDRAMEKLECLRDFDNAIHVPVLDLNPVSVNPDICNLTLRETLYSIALAAKIKAKPVTVHAGRRSAAREPVWADYLSLSRYLRISSRYAKIKGVTVGLENSENSINNLCKTADEVRKFAEEYDVMVTLDIKHALLNGGVEEFLELFGRICNVHVSYYDEKMRHVQPSRGKEVGDALKELAELGYDGPLTVELDDLGIGNLDFSKKVEILRKERRFVEKFFKR”, the “soluble on expression in E. coli” value is listed as “not soluble”.

For “MLCFFDPGNFDIGDSVNDVEVKFNRAWTSVIGTKIDFAEKYSINIEGYYKYVFDRGYITADTSTGTITPSFNFDGVGKVWGFDIQLQKLESRYWDGWISYTYTWAKYNDPSGGNNGISNGSTNTINDSWYYPSFHRFHNFNLVLNIKPLLWFNIALRFGFASGQPRRRIDNKIYPYPVLIVNEDNEMVILQKYRRNSWYDENERTPWSFPLDIKFSFFPVNKNGRTSMEIYAAGENMMSLFYSPPGRTTFNQYTGKEDQGSSSGSFDLPIPMVSFGIKWRY”, the “soluble on expression in E. coli” value is “not soluble”.

Turning to “MIIDIHGHYTTAPKALEDWRNRQIAGIKDPSVMPKVSELKISDDELQASIIENQLKKMQERGSDLTVFSPRASFMAHHIGDFNVSSTWAAICNELCYRVSQLFPDNFIGAAMLPQSPGVDPKTCIPELEKCVKEYGFVAINLNPDPSGGHWTSPPLTDRIWYPIYEKMVELEIPAMIHVSTSCNTCFHTTGAHYLNADTTAFMQCVAGDLFKDFPELKFVIPHGGGAVPYHWGRFRGLAQEMKKPLLEDHVLNNIFFDTCVYHQPGIDLLNTVIPVDNVLFASEMIGAVRGIDPRTGFYYDDTKRYIEASTILTPEEKQQIYEGNARRVYPRLDAALKAKGKAAALEHHHHHH”, the “soluble on expression in E. coli” value is given as “not soluble”.

As to “MSLTSYHSHPPKAYRRFESVCTQAPNAIAVVDEGKLVTYQQLQTQVLERSEALIRQGLADHPYMPLMANRCLEYLITMLACCKLGITYVSIEPGTPSKRLIAVLEQLGCNHLLLLGQPTDLRPDPTLTCFRLDDCGTLCYDGPALRPPIRRRLDDASVITVMFTSGTTGLPKGVRISHDGLLNLVDNVQQQVQGKPRSYVHHSSIGFDAALFEVWVPLLTGACVTLQPGAFNIDALDHCVRAASCDVLLLTTSLFHLVAQHRLSMLDAVRVLYVGGEVLKPVHARALLLANPRITLVNGYGPTENTVFSTWYSLNKPEDAERDVMPIGQFLHQVYGKIVDAKLQEVEVGTPGELLLTGANLALGYLDDALTQTRFLQLPEGTYYRTGDYVIEDEHGMLFYQGRIDEQVKIKGFRVEIAEVEHALTQLPGVAQAVVQAHVMNDLEKSLHAFIVLRHGSPTIEESKLMSLLGDRLPHYMVPRRIHYLAELPLTANGKVDKRSLQPPEKAAAAPPQAGSAVLDIWSGILGTRNLQLEHSIYGYGASSLSVVMAHSRINEILGRTTPFDEVARLSTFQEWVQYYATHEDPVTSLRSQHGNEGHHHHHH”, the “soluble on expression in E. coli” value is on record as “not soluble”.

With “MGSDKIHHHHHHMLSRPVRILIADEIGLGKTIQALAIARYLELQGEAKKILILVPKILREQWKQEIRRLGGKPVVITNGSEVERKLLRKATFNNAAEYFVVSIDLAKSQNHSEKFSAIDWDLLIVDEVHNVTYNTQRYNFLKSLIEKSKEDLNIVFLSATPHRGNPKDYIERLRLLDPTLTADWNALDSEKFYRRTHGVLVFRRTKKVVNDLEKREIFKKCDFNAVIVDITEEEKRFFEELDEVLFEMVKDVHMNSPVALLAVLLRKRAASSYESALKTINNIIKNQYSGASGEDVLEDQIKQIFGLGYDEMELEENSEIDDLISSIINSVAKRYPLDKGQINALEKILKIGKAIGKNDSKLKTLAEVLAYHLKKNEKVIVFTEFKDTLEYLRNNLPTLLEQEGIHLSEEKDISVLHGGMKSEEIEKQVEKFANDGKLLISTDVASEGLNLQVANILINYEIPWSPIKLEQRVGRIWRLNQTKETIAYTLLLNHEADLQILESLYQKILNITDAVGTGPNVGKPVFGTRTLSGNFEYRLENVQDEETSDSPVSEFELMLSAIKRRNLDEQTKRIISTLKSLRTKIEEVVPLNTCNEIQEELNSVLLPDDMESEIVFEKLKKYISVFENSFINSIGSYLFKILTDRIHEPLLNEKCLKIAVKNESKEYRLFQVEVIDRGRKIYEYPVLIEIGGNVSPQLYRGTSLLEKLADVFSKEWFVIEWANPKEKMDIQTAKLIDRSAKDLQSIMDKHTDYDIKLNESLMKTDSLFRRLNTRSSEILRVEGLSDREFSVFKLLHPSILEILGLSLDSIELPPSDYEKWMERSFVPLEDILESERKAMEIVMDIEKKRLIEKYGESSDWKVEDVSLKEHYDIKVSEPEGEKYIEVKGHKPLWLSAELTAAEHRFANDNRDRYWIYIVSNLGGKKPVILKIFSPFDDEKRKIYLVHENKDIDITEIFGSTIKTKQRYVISLGQKIYRRR”, the “soluble on expression in E. coli” value was “not soluble”.

Take “MKCPRCGREYISSIPPFCICGEELEITYDYSSVDVRKWKRRNPGVWRYKELLPEVKKIITLQEGGTPLIKARISEKINVDVYIKDETRNPTGSFRDRLATVAISYGLPYASNGFIVASDGNAAASVAAYSARAEKECFVVVPRKVDKGKLIQMIAFGARIIRYGDSVDEAIEYARELSKLNGLYNVTPEDNIIGLEGQKTIAFELWEEINPTHVIVPTGSGSYIYSIYKGFKELIKIGVLEKMPRLIAVQTERCNPIAAEILGLKKECKETKALGLYVKNPVMKSRVIRAIKESGGTAVVVNENDIITGEKLLANEGIFAELSSAVVMPALLSLVEKGIIEKGDKVVLVVTGSGLKIGEGGREKFSIGGTKLEILKILEEREMYAYEIWQALGKPLKYQAVHQHIKELQELGLIKEAYRKGKRIYYKLTERGRRLIENLE”: the “soluble on expression in E. coli” value is “soluble”.

On to “MSADFEQLVAQFERFQARMTRVEQQFAGVDDMRQRLAELEVAATSADRSVTVVAGPSGAILDIRLTEQAVRKPAHALAGELMSTLRKAVAEAARRQAGIVDGALGEAFGDDLDLTEQVLETQAELFGMSKEELRAVTAEEATTAPQQGPPAPPARPTPPSPGQPQGGPVPGRPEPGQARTGGPQPGRPHSGRQQSGQPQPGRPQSGQPQPGRPQSGQPQPGKSQPGTSQPGQARPGQSGPAQRPQGGEPQQEDFSERNFMKDDWKQSGSKAQPPGPGGKQDDRFLNLYDDEDGR”, for which the “soluble on expression in E. coli” value was “not soluble”.

Turning to “MDSLNNGWFSELQADLWPGQSFSLKVKEVIHKEKSRFQDIQIVETETYGRCLILDGIIQCTARDEFSYQEMISFLPLCAHPNPKKVLIVGGGDGGVAREVVKHPLVEEVHQVEIDDRVVELSKQYLPAMACGFANEKLKLTIGDGFDYMKKHKNEFDVIITDSSDPIGPAVSLFQESYYELMKHALKDDGIVCSQGGSFWLDLDYIKKTMSGCKEHFAKVAYAVTSVPSYPCGHIGFVMGSLNKNQDFATPKLGKSEIDSIDLRYYSSEVHSAAFALPRWVQKHFYELEHHHHHH”, the “soluble on expression in E. coli” value was “not soluble”.

Consider “MPDAVVIGAGPNGLVAANLLADAGWSVTVLEEQDEPGGAVRHDNGVDPDFTTDLFSSFYPLAAASPVLAGLHLEREGLRWSHAPRVLAHPLSDGRCAVLGRDLDDTAASLDTFADGDGAAWRELHDVWERLRPDLLDALFTPFPPVRAGARLAARLRAGGGLRLARSLVLPVRRLGEEEFRGEGGRLLLAGNALHADLAPEAAGSGGFGWLMSMLGQTYGFPVPVGGSGALTSALTQRLHRRGGVLRCGQRVSEVVVRQGRAVAVRTAGGETVPARRAVLADVSVPALYGTLVGSAHLPAQVLADLRRFQWDFATFKVDWALDGPVPWQADAASAAGTVHLADGVDELTRFAAQIAMRQVPDRPFALFGQMTTADATRSPEGTEAAWAYTHVPHRIAGDAGDAGLAGTWDAREQELMADRVERQVERFAPGFRSLIRARRILAPPTLQSLNANLYGGAINGGTTALHQQLVFRPIPGTGRPETPVANLFLASAGAHPGGGVHGAPGANAARAALRKHLPSGLTRAQRLLTRRNRKGERDTGFGGLEHHHHHH”, for which the “soluble on expression in E. coli” value is given as “not soluble”.

Regarding “HHHHHHKVDLGGFAGLFDLKAAGFKDPLLASGTDGVGTKLKIAQLCNKHDTIGQDLVAMCVNDILAQGAEPLFFLDYFSCGKLDLSVTEAVVAGIAKACGKAGCALLGGETAEMPDMYPPGEYDLAGFAVGAMERDQKLPHLERITEGDVVVGIASSGLHSNGFSLVRKIVAKSSLQYSSPAPDGCGDQTLGDLLLTPTRIYSHSLLPVLRSGHVKAFAHITGGGLLENIPRVLPEKLGVDLDAQTWRIPRVFSWLQQEGHLSEEEMARTFNCGVGAVLVVSKEQTEQILRGIQQHKEEAWVIGSVVARAEGSPRVKVKNLIESMQINGSVLKN”, the “soluble on expression in E. coli” value was “soluble”.
